Reference: US20050136043

Experiments:
GST-Smad1 = GST-Smad1 (UniProt Q15797)
GST-Smad2 (full-length) = GST-Smad2 (full-length) (UniProt Q15796)
GST-Smad3deltaMH1 = GST-Smad3deltaMH1 (UniProt P84022)
Sequence of GST-Smad3deltaMH1 (P84022 137-425, stated change not applied): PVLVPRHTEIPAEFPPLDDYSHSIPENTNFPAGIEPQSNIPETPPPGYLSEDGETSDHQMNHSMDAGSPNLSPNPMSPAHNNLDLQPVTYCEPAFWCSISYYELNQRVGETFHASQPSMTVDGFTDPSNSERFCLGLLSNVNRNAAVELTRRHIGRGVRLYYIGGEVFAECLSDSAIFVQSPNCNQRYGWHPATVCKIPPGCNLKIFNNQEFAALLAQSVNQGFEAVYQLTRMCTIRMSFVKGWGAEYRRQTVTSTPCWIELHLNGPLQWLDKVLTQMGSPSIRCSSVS

Sequence of GST-Smad1 (Q15797 whole entry): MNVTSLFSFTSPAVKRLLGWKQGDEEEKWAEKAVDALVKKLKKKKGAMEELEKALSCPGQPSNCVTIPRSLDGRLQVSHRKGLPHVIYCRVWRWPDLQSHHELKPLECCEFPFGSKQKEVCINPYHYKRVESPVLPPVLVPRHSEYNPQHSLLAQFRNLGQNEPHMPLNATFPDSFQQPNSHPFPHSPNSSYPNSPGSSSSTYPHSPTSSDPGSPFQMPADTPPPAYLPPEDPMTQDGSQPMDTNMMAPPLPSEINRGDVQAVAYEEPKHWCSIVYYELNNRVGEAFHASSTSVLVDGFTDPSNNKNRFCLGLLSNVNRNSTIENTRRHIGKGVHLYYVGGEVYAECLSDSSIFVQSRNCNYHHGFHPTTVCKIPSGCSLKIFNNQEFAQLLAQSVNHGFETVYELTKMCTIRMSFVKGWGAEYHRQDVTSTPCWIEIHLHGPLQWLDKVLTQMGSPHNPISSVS
Sequence of GST-Smad2 (full-length) (Q15796 whole entry): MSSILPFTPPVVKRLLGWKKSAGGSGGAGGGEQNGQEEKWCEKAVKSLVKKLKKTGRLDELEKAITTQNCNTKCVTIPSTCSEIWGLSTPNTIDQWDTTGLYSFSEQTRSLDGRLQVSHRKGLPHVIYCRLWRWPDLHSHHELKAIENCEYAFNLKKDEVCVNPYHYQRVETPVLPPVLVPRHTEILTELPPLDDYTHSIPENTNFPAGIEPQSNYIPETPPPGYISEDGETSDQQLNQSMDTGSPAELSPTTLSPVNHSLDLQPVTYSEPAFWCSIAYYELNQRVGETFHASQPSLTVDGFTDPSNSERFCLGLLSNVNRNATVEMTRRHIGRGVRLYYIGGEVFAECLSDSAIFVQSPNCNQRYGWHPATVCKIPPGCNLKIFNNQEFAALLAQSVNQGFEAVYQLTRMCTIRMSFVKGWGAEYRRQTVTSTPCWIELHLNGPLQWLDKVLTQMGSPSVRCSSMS

“GST-TβR-I (GST fused to the cytoplasmic part, residues 148-503, of constitutively active TβR-I T204D, FLAG-tagged at the C-terminus)” was tested, and the “phosphorylation of substrate in in vitro kinase assay (32P, SDS-PAGE, phosphorimager)” value (“phosphorylation of substrate” below) (GST-Smad1) was “no phosphorylation of GST-Smad1 was observed”, the “phosphorylation of substrate” value (GST-Smad2 (full-length)) was “Purified GST-TβR-I kinase efficiently phosphorylated itself, as well as the C-terminal part of Smad3 and full-length GST-Smad2 as exogenous substrates” and the “phosphorylation of substrate” value (GST-Smad3deltaMH1) was “Purified GST-TβR-I kinase efficiently phosphorylated itself, as well as the C-terminal part of Smad3 and full-length GST-Smad2 as exogenous substrates”.
